In patent publication US20150139975A1 (published 2015):
Residue numbers refer to the chain shown, from its start. One block for each binder: values may come before it.

Biological target: T1, C3b (UniProt P01024 23-667; P01024 749-1663)
T1 construct: Amine-coupled to a CM5 Biacore chip in the SPR assays; in solution in the cofactor assay; also called complement C3b
Test: SPR (Biacore), C3b amine-coupled to a CM5 chip, steady-state fit over two flow cells (1540 and 3030 RU of C3b)
Description: FIG. 3G—(i) and (ii)—Use of SPR to measure affinity of (i)rFH and (ii) plasma-purified FH for C3b coupled to aCM5 sensor chip (Biacore). Duplicate sensorgrams are shown for a concentration series (5.4 μM, 1.0 μM, 0.5 μM, 0.1 μM) flowed over 1540 response units of immobilised C3b. (iii) and (iv)—Plots of response units versus (iii)rFH or (iv) plasma-purified FH concentrations for two different flow cells with either 1540 RUs (lower curve in each plot) or 3030 RUs (upper curve in each plot) of C3b.

T1 sequence (P01024 23-667 limits assumed, chain 1 of 2): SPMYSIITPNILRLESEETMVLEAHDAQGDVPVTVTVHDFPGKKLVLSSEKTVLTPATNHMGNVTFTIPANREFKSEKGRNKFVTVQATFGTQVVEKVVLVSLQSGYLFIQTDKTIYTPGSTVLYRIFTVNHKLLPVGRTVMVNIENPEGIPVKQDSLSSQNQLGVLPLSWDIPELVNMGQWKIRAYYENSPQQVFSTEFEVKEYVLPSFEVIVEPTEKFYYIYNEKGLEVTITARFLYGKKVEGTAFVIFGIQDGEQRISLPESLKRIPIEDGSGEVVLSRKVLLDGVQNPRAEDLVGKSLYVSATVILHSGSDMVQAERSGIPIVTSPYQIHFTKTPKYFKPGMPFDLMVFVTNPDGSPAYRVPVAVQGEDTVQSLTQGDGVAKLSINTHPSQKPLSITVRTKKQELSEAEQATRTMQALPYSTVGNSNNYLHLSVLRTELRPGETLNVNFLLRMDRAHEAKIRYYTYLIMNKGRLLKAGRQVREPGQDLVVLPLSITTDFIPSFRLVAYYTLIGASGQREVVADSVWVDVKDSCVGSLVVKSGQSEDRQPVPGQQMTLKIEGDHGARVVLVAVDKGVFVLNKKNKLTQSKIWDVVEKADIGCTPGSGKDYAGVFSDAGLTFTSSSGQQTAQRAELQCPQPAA
T1 sequence (P01024 749-1663 limits assumed, chain 2 of 2): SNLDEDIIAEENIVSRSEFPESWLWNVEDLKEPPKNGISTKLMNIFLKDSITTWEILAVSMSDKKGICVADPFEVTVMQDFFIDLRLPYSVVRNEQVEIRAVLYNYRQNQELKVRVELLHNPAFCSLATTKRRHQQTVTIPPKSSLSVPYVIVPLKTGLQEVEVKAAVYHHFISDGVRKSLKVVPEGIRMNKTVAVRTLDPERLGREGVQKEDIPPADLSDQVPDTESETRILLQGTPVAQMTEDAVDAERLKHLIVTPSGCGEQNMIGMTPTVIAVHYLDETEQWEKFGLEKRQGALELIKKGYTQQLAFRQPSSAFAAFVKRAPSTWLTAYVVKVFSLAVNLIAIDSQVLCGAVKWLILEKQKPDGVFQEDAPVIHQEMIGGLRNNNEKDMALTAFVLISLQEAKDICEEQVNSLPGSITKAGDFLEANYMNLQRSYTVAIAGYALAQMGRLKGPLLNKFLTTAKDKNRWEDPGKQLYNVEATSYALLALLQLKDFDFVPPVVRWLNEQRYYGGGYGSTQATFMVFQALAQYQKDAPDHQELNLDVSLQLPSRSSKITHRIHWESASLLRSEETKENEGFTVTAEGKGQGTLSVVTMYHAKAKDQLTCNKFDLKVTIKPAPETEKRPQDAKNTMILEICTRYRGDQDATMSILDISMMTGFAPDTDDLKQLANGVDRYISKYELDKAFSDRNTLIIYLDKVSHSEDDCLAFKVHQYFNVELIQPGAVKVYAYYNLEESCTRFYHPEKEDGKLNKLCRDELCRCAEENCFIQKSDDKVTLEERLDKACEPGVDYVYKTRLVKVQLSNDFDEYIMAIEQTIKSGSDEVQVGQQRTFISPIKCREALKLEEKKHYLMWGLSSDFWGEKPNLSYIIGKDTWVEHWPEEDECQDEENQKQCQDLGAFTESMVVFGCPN

Kd: 1400 nM
B1: recombinant human complement factor H (rFH) expressed from codon-optimised DNA in Pichia pastoris (other, UniProt P08603 19-1231, looked up)
chain: EDCNELPPRRNTEILTGSWSDQTYPEGTQAIYKCRPGYRSLGNIIMVCRKGEWVALNPLRKCQKRPCGHPGDTPFGTFTLTGGNVFEYGVKAVYTCNEGYQLLGEINYRECDTDGWTNDIPICEVVKCLPVTAPENGKIVSSAMEPDREYHFGQAVRFVCNSGYKIEGDEEMHCSDDGFWSKEKPKCVEISCKSPDVINGSPISQKIIYKENERFQYKCNMGYEYSERGDAVCTESGWRPLPSCEEKSCDNPYIPNGDYSPLRIKHRTGDEITYQCRNGFYPATRGNTAKCTSTGWIPAPRCTLKPCDYPDIKHGGLYHENMRRPYFPVAVGKYYSYYCDEHFETPSGSYWDHIHCTQDGWSPAVPCLRKCYFPYLENGYNQNYGRKFVQGKSIDVACHPGYALPKAQTTVTCMENGWSPTPRCIRVKTCSKSSIDIENGFISESQYTYALKEKAKYQCKLGYVTADGETSGSITCGKDGWSAQPTCIKSCDIPVFMNARTKNDFTWFKLNDTLDYECHDGYESNTGSTTGSIVCGYNGWSDLPICYERECELPKIDVHLVPDRKKDQYKVGEVLKFSCKPGFTIVGPNSVQCYHFGLSPDLPICKEQVQSCGPPPELLNGNVKEKTKEEYGHSEVVEYYCNPRFLMKGPNKIQCVDGEWTTLPVCIVEESTCGDIPELEHGWAQLSSPPYYYGDSVEFNCSESFTMIGHRSITCIHGVWTQLPQCVAIDKLKKCKSSNLIILEEHLKNKKEFDHNSNIRYRCRGKEGWIHTVCINGRWDPEVNCSMAQIQLCPPPPQIPNSHNMTTTLNYRDGEKVSVLCQENYLIQEGEEITCKDGRWQSIPLCVEKIPCSQPPQIEHGTINSSRSSQESYAHGTKLSYTCEGGFRISEENETTCYMGKWSSPPQCEGLPCKSPPEISHGVVAHMSDSYQYGEEVTYKCFEGFGIDGPAIAKCLGEKWSHPPSCIKTDCLSLPSFENAIPMGEKKDVYKAGEQVTYTCATYYKMDGASNVTCINSRWTGRPTCRDTSCVNPPTVQNAYIVSRQMSKYPSGERVRYQCRSPYEMFGDEEVMCLNGNWTEPPQCKDSTGKCGPPPPIDNGDITSFPLSVYAPASSVEYQCQNLYQLEGNKRITCRNGQWSEPPKCLHPCVISREIMENYNIALRWTAKQKLYSRTGESVEFVCKRGYRLSSRSHTLRTTCWDGKLEYPTCAKR
modifications: N-glycans removed with Endo Hf after expression
notes: mature; also called rhFH; recombinant FH

Kd: 2900 nM
B2: plasma-purified human factor H (other, UniProt P08603 19-1231, looked up)
chain: B1 chain with I44V
notes: mature; Bought, plasma-derived; also called FH; plasma FH
